Measured values taken from the supplement of paper PMC10065799, “High-throughput profiling of sequence recognition by tyrosine kinases and SH2 domains using bacterial peptide display” (eLife, 2023).

molecular target: FGFR3 (UniProt P22607); assay: phosphorylation enrichment, bacterial display (enrichment ratio); higher = better substrate or ligand; peptides without Tyr show the background
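Note: 11-residue human phosphosite peptides and single-mutation variants displayed on the E. coli surface, counted by deep sequencing, each peptide's frequency after selection divided by its frequency in the unselected input library; frequency after pTyr selection over input frequency; kinase dosed for 20-30% of maximal phosphorylation in three min.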

FGFR3, sequence (P22607 whole entry, looked up): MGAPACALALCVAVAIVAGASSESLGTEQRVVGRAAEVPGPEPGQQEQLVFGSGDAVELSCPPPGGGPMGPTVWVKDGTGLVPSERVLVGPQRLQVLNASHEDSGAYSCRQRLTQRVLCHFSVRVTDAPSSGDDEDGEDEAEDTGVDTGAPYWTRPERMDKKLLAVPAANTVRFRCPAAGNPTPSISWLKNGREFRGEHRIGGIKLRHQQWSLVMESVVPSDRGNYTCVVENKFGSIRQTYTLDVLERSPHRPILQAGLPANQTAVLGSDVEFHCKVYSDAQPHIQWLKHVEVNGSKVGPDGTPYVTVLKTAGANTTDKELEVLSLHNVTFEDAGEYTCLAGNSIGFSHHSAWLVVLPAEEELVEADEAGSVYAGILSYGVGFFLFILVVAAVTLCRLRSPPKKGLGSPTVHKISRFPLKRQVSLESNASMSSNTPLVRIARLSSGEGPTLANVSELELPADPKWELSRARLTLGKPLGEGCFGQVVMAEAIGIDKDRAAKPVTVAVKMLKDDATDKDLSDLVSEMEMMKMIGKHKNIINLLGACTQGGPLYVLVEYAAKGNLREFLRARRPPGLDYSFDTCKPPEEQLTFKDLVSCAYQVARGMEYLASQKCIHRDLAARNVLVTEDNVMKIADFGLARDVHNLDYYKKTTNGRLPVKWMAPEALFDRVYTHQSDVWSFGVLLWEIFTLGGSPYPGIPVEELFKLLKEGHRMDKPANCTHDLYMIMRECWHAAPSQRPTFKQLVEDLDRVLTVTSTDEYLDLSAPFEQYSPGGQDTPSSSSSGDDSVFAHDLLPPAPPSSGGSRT

First: GEPLSHTRFSL [TFRC_Y20_Y20H]
Second: KGPNVCKKTVN [REV3L_Y1156_Y1156C]
The phosphorylation enrichment of the first is lower: 0.435 for the first, 0.741 for the second.

Compared with HDKEFYSVHNK [MET_Y1235_Y1230H_YF], SVIKEYQIRQV [USH2A_Y3623_G3618S] is lower in phosphorylation enrichment: 0.549 for the first, 0.509 for the second.

First: EEDPEYKKKFR [FAM161A_Y278]
Second: GIVKAYFVHAR [AIPL1_Y267_R270H_YF]
The phosphorylation enrichment of the first is lower: 0.544 for the first, 0.605 for the second.

Compared with EIRTQDEAMAS [GFAP_Y242_Y242D], RAILDYIASKY [GSTA3_Y74_N73D] is higher in phosphorylation enrichment: 0.57 for the first, 0.661 for the second.

Going from INMKEYCKKDF [NTN1_Y490_K489E_YF] to DGQVNYEELVQ [CALM1_Y139_F142L], the phosphorylation enrichment falls from 0.743 to 0.735.

Compared with GAPATYEGDAR [CACNA1A_Y1013], IHSGIYFKPES [L2HGDH_Y102_YF] is higher in phosphorylation enrichment: 0.51 for the first, 0.744 for the second.

First: PYYASYPPSPD [GDAP2_Y491_T489A]
Second: MWGSDYVQLSR [MAP3K4_Y582]
The phosphorylation enrichment of the first is lower: 3.53 for the first, 4.02 for the second.

Going from INITIYGKTFH [EFHC1_Y177_R182H] to PVQAAYQKVEA [HBB_Y131_V135E], the phosphorylation enrichment falls from 0.817 to 0.525.

Going from EYLQKYKGFKI [SYNE1_Y6953] to LTQRTYMLENA [GPAA1_Y49_S51L], the phosphorylation enrichment rises from 0.377 to 0.929.

Compared with LEDDMYRKTCT [XPA_Y257], ADRLEYSRTGL [MMUT_Y287_G284R] is lower in phosphorylation enrichment: 1.67 for the first, 0.651 for the second.

Compared with RALRHYYKLNI [ETV6_Y401], CYSSEYHYVGG [CTSC_Y345_Y340C] is higher in phosphorylation enrichment: 1.03 for the first, 9.68 for the second.

Going from MSRFIYSTDFF [NTRK1_Y676_D674Y_YF] to KRIETYFSKNF [PLP1_Y50_L46R_YF], the phosphorylation enrichment falls from 1.27 to 0.532.

First: RRAKGYPIDLF [ITGB2_Y125_YF]
Second: GDKENYGLPQP [BUB1_Y538_N534D]
The phosphorylation enrichment of the first is higher: 0.677 for the first, 0.567 for the second.

First: GHMFAYDWISI [BEST1_Y227_L224M_YF]
Second: PTEAQYRFIFM [PTPN11_Y511_Q506P_YF]
The phosphorylation enrichment of the first is higher: 2.15 for the first, 1.21 for the second.

First: KDKLPYLYDDP [GPX2_Y125_P126L]
Second: INPIIYAFVVE [CCR5_Y297_G301V]
The phosphorylation enrichment of the first is lower: 0.624 for the first, 1.29 for the second.

Going from DMDATYRPMYS [JUP_Y701] to YRAPGYREVVI [TNS2_Y673], the phosphorylation enrichment falls from 0.63 to 0.443.

Sequence ASYGPYTRVQS [FOXL2_Y258] has a phosphorylation enrichment of 0.427.

test system: Fer (mouse); assay: as above

Compared with GEPLSHTRFSL [TFRC_Y20_Y20H], KGPNVCKKTVN [REV3L_Y1156_Y1156C] is lower in phosphorylation enrichment: 0.448 for the first, 0.376 for the second.

Compared with HDKEFYSVHNK [MET_Y1235_Y1230H_YF], SVIKEYQIRQV [USH2A_Y3623_G3618S] is lower in phosphorylation enrichment: 0.629 for the first, 0.415 for the second.

First: EEDPEYKKKFR [FAM161A_Y278]
Second: GIVKAYFVHAR [AIPL1_Y267_R270H_YF]
The phosphorylation enrichment of the first is higher: 0.608 for the first, 0.481 for the second.

Compared with EIRTQDEAMAS [GFAP_Y242_Y242D], RAILDYIASKY [GSTA3_Y74_N73D] is higher in phosphorylation enrichment: 0.353 for the first, 0.665 for the second.

Going from INMKEYCKKDF [NTN1_Y490_K489E_YF] to DGQVNYEELVQ [CALM1_Y139_F142L], the phosphorylation enrichment rises from 0.427 to 0.639.

Compared with GAPATYEGDAR [CACNA1A_Y1013], IHSGIYFKPES [L2HGDH_Y102_YF] is lower in phosphorylation enrichment: 0.565 for the first, 0.497 for the second.

Going from PYYASYPPSPD [GDAP2_Y491_T489A] to MWGSDYVQLSR [MAP3K4_Y582], the phosphorylation enrichment falls from 0.915 to 0.383.

Going from INITIYGKTFH [EFHC1_Y177_R182H] to PVQAAYQKVEA [HBB_Y131_V135E], the phosphorylation enrichment rises from 0.579 to 0.676.

First: EYLQKYKGFKI [SYNE1_Y6953]
Second: LTQRTYMLENA [GPAA1_Y49_S51L]
The phosphorylation enrichment of the first is lower: 0.407 for the first, 0.468 for the second.

Compared with LEDDMYRKTCT [XPA_Y257], ADRLEYSRTGL [MMUT_Y287_G284R] is lower in phosphorylation enrichment: 1.37 for the first, 0.338 for the second.

Compared with RALRHYYKLNI [ETV6_Y401], CYSSEYHYVGG [CTSC_Y345_Y340C] is higher in phosphorylation enrichment: 0.402 for the first, 1.26 for the second.

Compared with MSRFIYSTDFF [NTRK1_Y676_D674Y_YF], KRIETYFSKNF [PLP1_Y50_L46R_YF] is lower in phosphorylation enrichment: 0.887 for the first, 0.46 for the second.

Compared with RRAKGYPIDLF [ITGB2_Y125_YF], GDKENYGLPQP [BUB1_Y538_N534D] is lower in phosphorylation enrichment: 1.08 for the first, 0.419 for the second.

Going from GHMFAYDWISI [BEST1_Y227_L224M_YF] to PTEAQYRFIFM [PTPN11_Y511_Q506P_YF], the phosphorylation enrichment falls from 13.8 to 1.06.

First: KDKLPYLYDDP [GPX2_Y125_P126L]
Second: INPIIYAFVVE [CCR5_Y297_G301V]
The phosphorylation enrichment of the first is lower: 0.77 for the first, 2.66 for the second.

Compared with DMDATYRPMYS [JUP_Y701], YRAPGYREVVI [TNS2_Y673] is lower in phosphorylation enrichment: 0.463 for the first, 0.432 for the second.

Sequence ASYGPYTRVQS [FOXL2_Y258] has a phosphorylation enrichment of 0.438.

molecular target: Fes (UniProt P07332); assay: as above
Sequence (P07332 whole entry, looked up): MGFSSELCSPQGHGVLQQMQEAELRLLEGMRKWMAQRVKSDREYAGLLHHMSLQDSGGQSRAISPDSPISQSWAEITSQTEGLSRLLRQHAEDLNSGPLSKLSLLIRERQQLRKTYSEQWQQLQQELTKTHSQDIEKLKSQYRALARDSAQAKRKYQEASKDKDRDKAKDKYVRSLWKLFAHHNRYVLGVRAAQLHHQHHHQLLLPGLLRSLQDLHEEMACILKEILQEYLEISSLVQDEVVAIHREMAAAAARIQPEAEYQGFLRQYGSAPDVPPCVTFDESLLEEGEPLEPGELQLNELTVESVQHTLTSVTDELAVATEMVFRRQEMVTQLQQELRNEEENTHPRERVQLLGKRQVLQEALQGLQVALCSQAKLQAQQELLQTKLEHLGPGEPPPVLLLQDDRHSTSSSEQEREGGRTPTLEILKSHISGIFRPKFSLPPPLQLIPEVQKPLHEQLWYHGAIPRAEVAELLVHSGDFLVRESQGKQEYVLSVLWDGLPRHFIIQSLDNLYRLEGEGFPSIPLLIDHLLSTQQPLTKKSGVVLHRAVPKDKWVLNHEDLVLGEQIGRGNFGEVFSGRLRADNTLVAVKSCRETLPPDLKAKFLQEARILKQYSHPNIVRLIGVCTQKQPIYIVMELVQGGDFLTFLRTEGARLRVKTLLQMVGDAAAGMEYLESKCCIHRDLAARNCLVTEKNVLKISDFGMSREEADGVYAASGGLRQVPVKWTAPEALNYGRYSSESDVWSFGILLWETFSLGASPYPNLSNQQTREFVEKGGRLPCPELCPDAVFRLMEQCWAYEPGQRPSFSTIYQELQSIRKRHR

Going from GEPLSHTRFSL [TFRC_Y20_Y20H] to KGPNVCKKTVN [REV3L_Y1156_Y1156C], the phosphorylation enrichment rises from 0.828 to 0.863.

Compared with HDKEFYSVHNK [MET_Y1235_Y1230H_YF], SVIKEYQIRQV [USH2A_Y3623_G3618S] is lower in phosphorylation enrichment: 0.842 for the first, 0.68 for the second.

Compared with EEDPEYKKKFR [FAM161A_Y278], GIVKAYFVHAR [AIPL1_Y267_R270H_YF] is lower in phosphorylation enrichment: 0.99 for the first, 0.872 for the second.

First: EIRTQDEAMAS [GFAP_Y242_Y242D]
Second: RAILDYIASKY [GSTA3_Y74_N73D]
The phosphorylation enrichment of the first is lower: 0.755 for the first, 0.761 for the second.

Going from INMKEYCKKDF [NTN1_Y490_K489E_YF] to DGQVNYEELVQ [CALM1_Y139_F142L], the phosphorylation enrichment rises from 1.12 to 1.25.

Going from GAPATYEGDAR [CACNA1A_Y1013] to IHSGIYFKPES [L2HGDH_Y102_YF], the phosphorylation enrichment rises from 0.666 to 0.887.

First: PYYASYPPSPD [GDAP2_Y491_T489A]
Second: MWGSDYVQLSR [MAP3K4_Y582]
The phosphorylation enrichment of the first is higher: 1.15 for the first, 0.765 for the second.

Compared with INITIYGKTFH [EFHC1_Y177_R182H], PVQAAYQKVEA [HBB_Y131_V135E] is lower in phosphorylation enrichment: 1.44 for the first, 0.887 for the second.

Compared with EYLQKYKGFKI [SYNE1_Y6953], LTQRTYMLENA [GPAA1_Y49_S51L] is higher in phosphorylation enrichment: 0.868 for the first, 1.01 for the second.

Compared with LEDDMYRKTCT [XPA_Y257], ADRLEYSRTGL [MMUT_Y287_G284R] is lower in phosphorylation enrichment: 2.56 for the first, 0.599 for the second.

Compared with RALRHYYKLNI [ETV6_Y401], CYSSEYHYVGG [CTSC_Y345_Y340C] is higher in phosphorylation enrichment: 0.606 for the first, 1.1 for the second.

Compared with MSRFIYSTDFF [NTRK1_Y676_D674Y_YF], KRIETYFSKNF [PLP1_Y50_L46R_YF] is lower in phosphorylation enrichment: 1.31 for the first, 0.874 for the second.

Compared with RRAKGYPIDLF [ITGB2_Y125_YF], GDKENYGLPQP [BUB1_Y538_N534D] is lower in phosphorylation enrichment: 0.993 for the first, 0.859 for the second.

Going from GHMFAYDWISI [BEST1_Y227_L224M_YF] to PTEAQYRFIFM [PTPN11_Y511_Q506P_YF], the phosphorylation enrichment falls from 2.68 to 1.81.

Compared with KDKLPYLYDDP [GPX2_Y125_P126L], INPIIYAFVVE [CCR5_Y297_G301V] is higher in phosphorylation enrichment: 0.983 for the first, 1.5 for the second.

Going from DMDATYRPMYS [JUP_Y701] to YRAPGYREVVI [TNS2_Y673], the phosphorylation enrichment falls from 0.768 to 0.634.

ASYGPYTRVQS [FOXL2_Y258] showed a phosphorylation enrichment of 0.623.

molecular target: Fyn (UniProt P06241); assay: as above
Sequence (P06241 whole entry, looked up): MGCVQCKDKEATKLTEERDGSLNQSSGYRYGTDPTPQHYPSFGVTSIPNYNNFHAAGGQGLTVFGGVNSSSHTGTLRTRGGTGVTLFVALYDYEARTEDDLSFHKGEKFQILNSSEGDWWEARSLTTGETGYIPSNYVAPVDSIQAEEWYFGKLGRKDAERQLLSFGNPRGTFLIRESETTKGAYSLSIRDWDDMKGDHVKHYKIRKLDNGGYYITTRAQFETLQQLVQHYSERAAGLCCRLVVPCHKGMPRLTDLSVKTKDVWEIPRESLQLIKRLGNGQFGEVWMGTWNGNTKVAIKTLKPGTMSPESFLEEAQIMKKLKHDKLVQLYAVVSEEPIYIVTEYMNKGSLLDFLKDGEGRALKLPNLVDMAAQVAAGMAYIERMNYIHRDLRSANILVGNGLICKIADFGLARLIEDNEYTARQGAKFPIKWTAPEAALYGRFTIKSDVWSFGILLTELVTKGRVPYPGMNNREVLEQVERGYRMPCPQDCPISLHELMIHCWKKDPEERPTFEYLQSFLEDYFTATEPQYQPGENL

First: GEPLSHTRFSL [TFRC_Y20_Y20H]
Second: KGPNVCKKTVN [REV3L_Y1156_Y1156C]
The phosphorylation enrichment of the first is higher: 0.398 for the first, 0.378 for the second.

Going from HDKEFYSVHNK [MET_Y1235_Y1230H_YF] to SVIKEYQIRQV [USH2A_Y3623_G3618S], the phosphorylation enrichment falls from 0.646 to 0.352.

First: EEDPEYKKKFR [FAM161A_Y278]
Second: GIVKAYFVHAR [AIPL1_Y267_R270H_YF]
The phosphorylation enrichment of the first is higher: 0.61 for the first, 0.449 for the second.

Going from EIRTQDEAMAS [GFAP_Y242_Y242D] to RAILDYIASKY [GSTA3_Y74_N73D], the phosphorylation enrichment rises from 0.43 to 0.564.

Going from INMKEYCKKDF [NTN1_Y490_K489E_YF] to DGQVNYEELVQ [CALM1_Y139_F142L], the phosphorylation enrichment rises from 0.669 to 0.704.

Going from GAPATYEGDAR [CACNA1A_Y1013] to IHSGIYFKPES [L2HGDH_Y102_YF], the phosphorylation enrichment rises from 0.388 to 1.72.

Compared with PYYASYPPSPD [GDAP2_Y491_T489A], MWGSDYVQLSR [MAP3K4_Y582] is lower in phosphorylation enrichment: 10.7 for the first, 0.685 for the second.

Going from INITIYGKTFH [EFHC1_Y177_R182H] to PVQAAYQKVEA [HBB_Y131_V135E], the phosphorylation enrichment rises from 0.519 to 0.597.

Compared with EYLQKYKGFKI [SYNE1_Y6953], LTQRTYMLENA [GPAA1_Y49_S51L] is higher in phosphorylation enrichment: 0.275 for the first, 0.858 for the second.

Going from LEDDMYRKTCT [XPA_Y257] to ADRLEYSRTGL [MMUT_Y287_G284R], the phosphorylation enrichment falls from 1.78 to 0.408.

Compared with RALRHYYKLNI [ETV6_Y401], CYSSEYHYVGG [CTSC_Y345_Y340C] is higher in phosphorylation enrichment: 0.685 for the first, 1.57 for the second.

Compared with MSRFIYSTDFF [NTRK1_Y676_D674Y_YF], KRIETYFSKNF [PLP1_Y50_L46R_YF] is lower in phosphorylation enrichment: 4.15 for the first, 0.499 for the second.

First: RRAKGYPIDLF [ITGB2_Y125_YF]
Second: GDKENYGLPQP [BUB1_Y538_N534D]
The phosphorylation enrichment of the first is higher: 0.563 for the first, 0.461 for the second.

Going from GHMFAYDWISI [BEST1_Y227_L224M_YF] to PTEAQYRFIFM [PTPN11_Y511_Q506P_YF], the phosphorylation enrichment rises from 0.935 to 0.939.

Compared with KDKLPYLYDDP [GPX2_Y125_P126L], INPIIYAFVVE [CCR5_Y297_G301V] is higher in phosphorylation enrichment: 0.522 for the first, 2.42 for the second.

Compared with DMDATYRPMYS [JUP_Y701], YRAPGYREVVI [TNS2_Y673] is lower in phosphorylation enrichment: 0.563 for the first, 0.474 for the second.

In the case of ASYGPYTRVQS [FOXL2_Y258], the phosphorylation enrichment was 0.673.
